The values that follow come from US20190322728A1 (PROTHENA BIOSCIENCES, published 2019).

The target in assay [1] is T1, rTau: human tau with 4 microtubule binding repeats and no N-terminal inserts, containing a P301L mutation (human, UniProt P10636 2-758).
T1 construct: Expressed in E. coli and purified; It is the parent of the deletion mutants; also called full-length Tau; wild-type Tau (WT) of the blots
Nature of the assay: Western blot of bacterial lysate, 16B5 at 0.2 ug/mL.

The target of assay [2] is T2, tau deletion mutant Δ5-24 (printed A5-24) (human, UniProt P10636-6 1-383).
T2 construct: Deletion mutant of rTau, tested in clarified bacterial lysate; The limits of the pieces are derived from the printed deletion
The assay is described as above.

Assay [3] has as its target T3, tau peptide, residues 25-44 of SEQ ID NO: 1 (human).
T3 construct: Proteolytic fragment (LysC and trypsin digests) of rTau, precipitated by 16B5 and identified by MALDI-TOF/TOF
T3 peptide: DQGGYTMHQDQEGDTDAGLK
Nature of the assay: precipitation of protease fragments of rTau with 16B5, HPLC, MALDI-TOF/TOF.

In assay [4] the target is T4, tau peptide, residues 24-44 of SEQ ID NO: 1 (human).
T4 construct: Tryptic fragment of rTau, precipitated by 16B5 and identified by MALDI-TOF/TOF
T4 peptide: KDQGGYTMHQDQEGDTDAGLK
Described as above.

The target of assay [5] is T5, tau deletion mutant Δ23-32 (printed A23-32) (human, UniProt P10636 1-758).
T5 construct: Deletion mutant of rTau, tested in clarified bacterial lysate; The limits of the pieces are derived from the printed deletion
Nature of the assay: Western blot of bacterial lysate, antibody at 0.2 µg/mL. Background: Immunoblotting shows a protein as a band on a membrane.

Assay [6] addresses recombinant purified hTau-P301L (human) (UniProt P10636). In words: SPR (Biacore T200), antibody held by a capture antibody on a CM5 chip, hTau-P301L as analyte.
For assay [7], the target named is T6, tau deletion mutant Δ30-39 (printed A30-39) (human, UniProt P10636 1-758).
T6 construct: Deletion mutant of rTau, tested in clarified bacterial lysate; The limits of the pieces are derived from the printed deletion
In words: Western blot of bacterial lysate.

In assay [8] the target is T7, tau deletion mutant Δ25-44 (printed A25-44) (human, UniProt P10636 1-758).
T7 construct: Deletion mutant of rTau, tested in clarified bacterial lysate; The limits of the pieces are derived from the printed deletion
Nature of the assay: Western blot of bacterial lysate.

Changes are numbered by the printed parent chain.

Chain of recombinant purified hTau-P301L (human) (P10636 other isoform, or with tags, fused parts or gaps P301L P301L): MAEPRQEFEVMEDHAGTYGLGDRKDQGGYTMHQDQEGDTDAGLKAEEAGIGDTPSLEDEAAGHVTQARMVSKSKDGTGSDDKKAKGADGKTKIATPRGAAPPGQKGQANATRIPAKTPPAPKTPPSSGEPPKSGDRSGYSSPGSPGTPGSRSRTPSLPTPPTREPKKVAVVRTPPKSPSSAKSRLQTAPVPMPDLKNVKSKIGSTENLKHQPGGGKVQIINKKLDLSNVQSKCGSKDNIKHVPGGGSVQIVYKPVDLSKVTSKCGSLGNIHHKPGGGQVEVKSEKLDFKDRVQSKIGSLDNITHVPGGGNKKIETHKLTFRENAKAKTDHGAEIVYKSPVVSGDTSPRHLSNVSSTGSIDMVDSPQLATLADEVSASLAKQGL
T7 sequence (P10636 other isoform, or with tags, fused parts or gaps mutant): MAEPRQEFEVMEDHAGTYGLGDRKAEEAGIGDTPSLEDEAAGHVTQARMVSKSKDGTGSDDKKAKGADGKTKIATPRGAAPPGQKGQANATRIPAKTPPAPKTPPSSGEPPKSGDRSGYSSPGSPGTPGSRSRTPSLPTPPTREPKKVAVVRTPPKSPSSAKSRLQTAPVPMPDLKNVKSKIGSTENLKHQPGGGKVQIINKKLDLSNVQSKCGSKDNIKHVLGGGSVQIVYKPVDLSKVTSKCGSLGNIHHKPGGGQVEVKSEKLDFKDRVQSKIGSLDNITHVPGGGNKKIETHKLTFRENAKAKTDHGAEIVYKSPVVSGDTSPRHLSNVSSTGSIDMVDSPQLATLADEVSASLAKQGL
T1 sequence (P10636 other isoform, or with tags, fused parts or gaps P301L P301L limits assumed): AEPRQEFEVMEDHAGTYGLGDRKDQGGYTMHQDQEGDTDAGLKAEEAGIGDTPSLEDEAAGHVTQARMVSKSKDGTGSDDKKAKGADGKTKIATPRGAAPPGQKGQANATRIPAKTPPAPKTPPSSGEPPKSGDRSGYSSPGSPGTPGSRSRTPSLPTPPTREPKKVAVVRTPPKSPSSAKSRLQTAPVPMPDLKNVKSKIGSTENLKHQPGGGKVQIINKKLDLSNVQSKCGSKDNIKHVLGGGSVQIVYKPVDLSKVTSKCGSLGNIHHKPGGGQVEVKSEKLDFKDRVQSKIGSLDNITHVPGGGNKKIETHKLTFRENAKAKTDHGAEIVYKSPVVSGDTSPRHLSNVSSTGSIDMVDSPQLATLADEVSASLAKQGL
T2 sequence (P10636 other isoform, or with tags, fused parts or gaps mutant): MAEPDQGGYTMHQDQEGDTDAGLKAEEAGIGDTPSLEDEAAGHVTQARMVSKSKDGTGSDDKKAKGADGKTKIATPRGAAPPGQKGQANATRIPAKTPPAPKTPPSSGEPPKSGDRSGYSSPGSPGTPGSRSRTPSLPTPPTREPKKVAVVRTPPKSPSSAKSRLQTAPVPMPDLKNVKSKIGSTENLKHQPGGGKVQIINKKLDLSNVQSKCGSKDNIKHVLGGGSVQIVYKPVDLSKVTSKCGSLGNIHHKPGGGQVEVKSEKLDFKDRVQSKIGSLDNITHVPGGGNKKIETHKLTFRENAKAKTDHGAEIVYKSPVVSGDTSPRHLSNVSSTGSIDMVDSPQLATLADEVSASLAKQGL
T6 sequence (P10636 other isoform, or with tags, fused parts or gaps mutant): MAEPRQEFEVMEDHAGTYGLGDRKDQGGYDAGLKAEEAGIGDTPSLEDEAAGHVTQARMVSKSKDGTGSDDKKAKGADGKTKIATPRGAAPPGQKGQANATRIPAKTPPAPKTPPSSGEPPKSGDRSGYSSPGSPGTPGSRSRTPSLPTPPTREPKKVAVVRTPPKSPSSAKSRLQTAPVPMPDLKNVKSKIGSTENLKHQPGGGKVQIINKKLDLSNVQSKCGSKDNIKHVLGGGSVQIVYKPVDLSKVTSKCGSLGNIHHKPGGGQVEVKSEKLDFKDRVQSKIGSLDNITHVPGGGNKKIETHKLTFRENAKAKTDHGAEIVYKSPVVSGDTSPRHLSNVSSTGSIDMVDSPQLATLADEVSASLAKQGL
T5 sequence (P10636 other isoform, or with tags, fused parts or gaps mutant): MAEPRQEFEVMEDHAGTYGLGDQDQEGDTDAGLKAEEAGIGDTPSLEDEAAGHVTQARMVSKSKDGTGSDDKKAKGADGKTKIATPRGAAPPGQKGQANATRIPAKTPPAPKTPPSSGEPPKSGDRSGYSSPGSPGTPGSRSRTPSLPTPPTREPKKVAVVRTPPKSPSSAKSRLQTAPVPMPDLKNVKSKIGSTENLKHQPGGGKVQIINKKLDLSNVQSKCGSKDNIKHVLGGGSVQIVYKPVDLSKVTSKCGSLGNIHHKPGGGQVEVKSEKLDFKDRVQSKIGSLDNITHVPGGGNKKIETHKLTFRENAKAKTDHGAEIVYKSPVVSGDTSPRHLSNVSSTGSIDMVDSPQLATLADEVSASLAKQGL

B1: 16B5 monoclonal antibody (mouse) (antibody, V domains shown)
VH: QIQLVQSGPELKKPGETVKISCKASGYPFTYHGMDWVKQAPWGGLEWMGWINTYSGVPTYADDFKGRFAFSLETSVGTAYLQINNLKNEDTATYFCARRRDFTMDFWGQGTSVTVSS
VL: NIVLSQSPSSLAVSPGEKVTMSCKSSQSLLNSRTRKNYLAWFQQKPGQSPKLLIYWASTRESGVPDRFTGSGSGTDFTLTISSVQAEDLAVYYCKQSYTLRTFGGGTNLEIKR
notes: Mouse monoclonal antibody; The control 6F10 is called an IgG1 isotype control; also called Murine 16B5; pan antibody 16B5
With B1, the binding result in assay [1] is reported as “binds”; in assay [2], “binds”; in assay [3] it was “binds”; in assay [4], “binds”; in assay [5], “binds”; in assay [7], “no binding (tested: 0.2 µg/mL antibody)”. Also, in assay [8], the binding result is listed as “no binding (tested: 0.2 µg/mL antibody)”. For the same molecule, the Kd (in general, the constant that tells how readily two partners part at equilibrium) in assay [6] was determined as 2.32 pM.

B2: humanized 16B5, version H1L2 (antibody, V domains shown)
VH: QVQLVQSGSELKKPGASVKVSCKASGYPFTYHGMDWVRQAPGQGLEWMGWINTYSGVPTYADDFKGRFVFSLDTSVSTAYLQISSLKAEDTAVYFCARRRDFTMDFWGQGTTVTVSS
VL: NIVLTQSPDSLAVSLGERATINCKSSQSLLNSRTRKNYLAWFQQKPGQSPKLLIYWASTRESGVPDRFSGSGSGTDFTLTISSLQAEDVAVYYCKQSYTLRTFGGGTKVEIKR
Regarding B2, in assay [6], the Kd worked out at 2.94 pM; the koff (in general, the rate constant with which the complex falls apart) amounted to 0.000131 s⁻¹; the kon (as a rule, the second-order rate constant of association) came to 4.47e+07 M⁻¹ s⁻¹.

B3: humanized 16B5, version H2L2 (antibody, V domains shown)
VH: B2 VH with Q1E
VL: B2 VL
For the molecule B3, in assay [6], the equilibrium dissociation constant (Kd) worked out at 2.86 pM, the koff is 0.000138 s⁻¹ and the association rate constant (kon) stood at 4.85e+07 M⁻¹ s⁻¹.

B4: humanized 16B5, version H1L1 (antibody, V domains shown)
VH: B2 VH
VL: B2 VL with S49P
B4: in assay [6], the dissociation constant relative to the chimeric antibody (fold of chimeric 16B5) came out at 0.33.

B5: humanized 16B5, version H2L4 (antibody, V domains shown)
VH: B2 VH with Q1E
VL: B2 VL with D9S
As for B5, in assay [6], the dissociation constant (Kd) turned out to be 3.95 pM, the koff was found to be 0.000171 s⁻¹ and the on-rate (kon) came out at 4.34e+07 M⁻¹ s⁻¹.

B6: humanized 16B5, version H1L4 (antibody, V domains shown)
VH: B2 VH
VL: B2 VL with D9S
In the case of B6, in assay [6], the Kd came out at 3.15 pM, the off-rate (koff) was determined as 0.000137 s⁻¹ and the kon worked out at 4.36e+07 M⁻¹ s⁻¹.
